3 substances from US20180105574A1 can be followed below.

“And” between values parts separate entries of the source, which are not always exact repeats. Equal entries are not always repeated.

For assay [1], the target named is human fibrinogen (purified, commercial) (human) (UniProt P02671). The assay is described as follows: fibrinogen binding activity of purification step, biotinylated fibrinogen.
The target is the same in assay [2]. Briefly: fibrinogen binding activity after ammonium sulfate precipitation, biotinylated fibrinogen.
The target is the same in assay [3]. The assay is described as follows: fibrinogen binding activity of the anion exchange pool (partly purified Pfg), biotinylated fibrinogen.
For assay [4] the target is unchanged. The assay is described as follows: fibrinogen binding activity of the gel filtration pool (pure Pfg), biotinylated fibrinogen. Background: Size exclusion chromatography separates by hydrodynamic size, large species first.
Assay [5] deals with P. acnes total surface protein extract. Briefly: plate assay, extract 0.8 to 50 µg/ml immobilized, biotinylated fibrinogen 0.1 µg/ml.

Chain of UniProt P02671 (P02671 20-629 limits assumed, chain 1 of 3): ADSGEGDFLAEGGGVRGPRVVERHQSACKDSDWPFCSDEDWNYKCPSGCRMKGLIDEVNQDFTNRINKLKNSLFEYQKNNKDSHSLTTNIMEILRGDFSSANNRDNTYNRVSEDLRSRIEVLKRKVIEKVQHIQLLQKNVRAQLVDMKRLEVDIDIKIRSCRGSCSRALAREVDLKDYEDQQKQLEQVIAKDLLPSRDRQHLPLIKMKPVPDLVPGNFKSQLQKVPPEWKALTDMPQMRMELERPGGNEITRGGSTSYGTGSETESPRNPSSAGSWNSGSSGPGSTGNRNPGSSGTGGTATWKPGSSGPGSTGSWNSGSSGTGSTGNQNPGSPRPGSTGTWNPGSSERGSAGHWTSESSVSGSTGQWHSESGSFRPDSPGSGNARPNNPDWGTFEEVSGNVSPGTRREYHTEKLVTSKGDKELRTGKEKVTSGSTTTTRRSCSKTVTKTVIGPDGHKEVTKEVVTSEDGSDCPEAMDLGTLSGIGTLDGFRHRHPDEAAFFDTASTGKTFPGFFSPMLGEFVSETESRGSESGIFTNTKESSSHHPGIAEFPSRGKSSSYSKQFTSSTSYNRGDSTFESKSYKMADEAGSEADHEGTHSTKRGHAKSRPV
Chain of UniProt P02671 (chain, as listed by the source limits assumed, chain 2 of 3): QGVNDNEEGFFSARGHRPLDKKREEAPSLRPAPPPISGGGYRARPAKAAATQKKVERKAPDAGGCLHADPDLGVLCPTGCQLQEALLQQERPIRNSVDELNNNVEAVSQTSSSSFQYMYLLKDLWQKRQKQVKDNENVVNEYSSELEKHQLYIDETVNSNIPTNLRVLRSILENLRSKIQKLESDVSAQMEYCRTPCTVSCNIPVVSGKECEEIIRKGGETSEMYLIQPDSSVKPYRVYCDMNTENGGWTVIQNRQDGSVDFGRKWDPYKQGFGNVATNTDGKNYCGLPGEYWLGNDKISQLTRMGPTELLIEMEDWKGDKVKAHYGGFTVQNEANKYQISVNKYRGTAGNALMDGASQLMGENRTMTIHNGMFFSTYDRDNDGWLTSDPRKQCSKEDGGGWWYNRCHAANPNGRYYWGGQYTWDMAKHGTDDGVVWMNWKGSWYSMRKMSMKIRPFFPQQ
Chain of UniProt P02671 (P02679 other isoform, or with tags, fused parts or gaps limits assumed, chain 3 of 3, further chain): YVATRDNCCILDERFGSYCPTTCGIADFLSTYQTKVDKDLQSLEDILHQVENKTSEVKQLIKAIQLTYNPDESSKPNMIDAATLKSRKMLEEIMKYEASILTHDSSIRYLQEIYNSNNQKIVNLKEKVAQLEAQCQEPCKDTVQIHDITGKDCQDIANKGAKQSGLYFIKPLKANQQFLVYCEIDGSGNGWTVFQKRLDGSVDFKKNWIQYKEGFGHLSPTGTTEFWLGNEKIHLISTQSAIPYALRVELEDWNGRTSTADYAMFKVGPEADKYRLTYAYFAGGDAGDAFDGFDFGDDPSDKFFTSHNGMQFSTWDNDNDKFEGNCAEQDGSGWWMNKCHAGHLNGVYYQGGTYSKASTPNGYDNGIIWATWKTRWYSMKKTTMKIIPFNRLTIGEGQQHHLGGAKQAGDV

Consider P. acnes total surface protein extract, for which, in assay [1], the Specific Activity (fibrinogen binding activity per unit of protein) was 423 U/mg and 290 U/mg; the Total units (fibrinogen binding activity) is 390000 U and 160000 U. This substance also came in with a fold increase in specific activity against the unconcentrated lithium extract in assay [2] of 1.45 fold.
For the substance “Pfg, 58-kDa P. acnes surface protein (fibrinogen binding protein; putative adhesion or S-layer protein YP_056792, locus tag PPA2127)”, the Specific Activity (fibrinogen binding activity per unit of protein) worked out at 1030 U/mg in assay [3] and 1840 U/mg in assay [4]. Moreover, the Total units (fibrinogen binding activity) in assay [3] worked out at 3000 U; in assay [4] it was 368 U.
The substance “human fibrinogen (purified, commercial) (from UniProt P02671 20-629; P02679 27-437) (ligand)” showed a concentration of immobilized extract at which binding reaches a plateau in assay [5] of 6.25 µg/mL.
